Assay results from US20170342140A1.

Legend:
[1] = target: glycopeptide B (SEQ ID NO: 21), BSA-PEG4 conjugate; assay: antigen solid-phase ELISA, AAL lectin as positive control
[2] = target: non-fucosylated glycopeptide B (SEQ ID NO: 22), BSA-PEG4 conjugate; assay: antigen solid-phase ELISA, WGA lectin as positive control

OD450 [1]	OD450 [2]	Substance
0.335 OD450		AAL lectin (from UniProt P18891 2-313)
	3 OD450	WGA lectin
